PMC1978536, “MVB-12, a Fourth Subunit of Metazoan ESCRT-I, Functions in Receptor Downregulation” (PLoS ONE, 2007)
Blank lines part the entries; values can stand above or below the molecule they belong to.

How the values were obtained:
[1] = target: TSG-101 (C. elegans, endogenous) (C. elegans (endogenous in embryos)); assay: SEC + other: sucrose density gradient sedimentation; C. elegans embryo extracts desalted into 50 mM Na phosphate pH 7.0, 250 mM NaCl, 1 mM EDTA, 1 mM beta-mercaptoethanol; Superose 6 and 5-20% sucrose gradient; fractions blotted for TSG-101 and MVB-12
[2] = target: T1, TSG-101:6xHIS (recombinant C. elegans TSG-101) (C. elegans, UniProt O76258 1-425); assay: SEC + other: sucrose density gradient sedimentation; TSG-101:6xHIS, VPS-28 and VPS-37 co-expressed in E. coli, purified on nickel resin; Superose 6 in 50 mM Na phosphate pH 7.0, 250 mM NaCl, 1 mM EDTA, 1 mM beta-mercaptoethanol; 5-20% sucrose gradient; Stokes radius and S-value combined to a native molecular weight; details: both partners purified
T1 construct: open reading frame amplified from N2 cDNA; source: E. coli BL21 (DE3), co-expressed from a polycistronic vector, purified (Ni-NTA, Superose 6); not shown: 6xHis, C-terminal, kept
T1 sequence (looked up): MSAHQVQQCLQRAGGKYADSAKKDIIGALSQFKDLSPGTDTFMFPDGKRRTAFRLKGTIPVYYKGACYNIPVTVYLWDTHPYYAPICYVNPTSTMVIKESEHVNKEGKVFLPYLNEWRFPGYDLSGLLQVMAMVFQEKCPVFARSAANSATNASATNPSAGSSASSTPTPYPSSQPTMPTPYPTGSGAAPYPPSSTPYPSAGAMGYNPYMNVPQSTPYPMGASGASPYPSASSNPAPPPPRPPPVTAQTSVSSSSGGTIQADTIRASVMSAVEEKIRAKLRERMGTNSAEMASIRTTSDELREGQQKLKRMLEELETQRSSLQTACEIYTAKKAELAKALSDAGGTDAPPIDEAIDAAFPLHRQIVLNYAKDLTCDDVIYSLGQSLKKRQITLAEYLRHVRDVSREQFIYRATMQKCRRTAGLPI

[3] = target: T1, TSG-101:6xHIS (recombinant C. elegans …); assay: SEC + other: sucrose density gradient sedimentation; TSG-101:6xHIS, VPS-28, VPS-37 and MVB-12 co-expressed in E. coli, purified on nickel resin; Superose 6 in 50 mM Na phosphate pH 7.0, 250 mM NaCl, 1 mM EDTA, 1 mM beta-mercaptoethanol; 5-20% sucrose gradient; Stokes radius and S-value combined to a native molecular weight; details: both partners purified

Molecule: MVB-12 (C. elegans, endogenous) (from UniProt Q17687 1-277) (natural protein)
stoichiometry N [1]: 1

B2: MVB-12 (recombinant C. elegans) (natural protein, UniProt Q17687 1-277, looked up)
chain: MTELEFSADNAAPVIPITAICIVADKNKAPRGFLPIIKCQDDQTEADLWRDGFFTINRQVRYICTSTEIPDSNIKTPVQVITNLIIVRESDPIPHGYVAIDYTADSREKSLRKKYVCIRTEPRDRVVDAIGEIIILGKTKKVPRDYTSAGDIDSLLICYKVISIPQTYGIQTSNSTSNIESQAAGGLYPGLPNLSNSTPANLDVTGSSSNSAFTMKNAGAPRVKAIDGIDFKVNPMFVNSSGSNNSSQLPDLSQFNDLDRLDDKYNYSYATEHAVLS
notes: MVB-12 (C06A6.3), C. elegans; open reading frame amplified from N2 cDNA; 277 amino acids as printed
stoichiometry N [3]: 1

Other lines, results leading:

stoichiometry N [2]: 1
B1: VPS-28 (recombinant C. elegans) (natural protein, UniProt Q9NA26 1-210, looked up)
chain: MSSQNANLMREVRLFENHSEREQMENLSELFAVLNALEHLEKMFSRDHVSADEYKSECFKLIDQYKVTMRLVHGATSIEDFAKKYRLHCPAAIERIREGRPITVKDDQGNVLKHIASIVEQFITFLDALRLNTRAVDDLYPGLDDLYNAINTTSRVPIDAIVTTKVKKWHDRLSSMAASDEISDEDARQMIFDVESAYQAFNKALNELKH
notes: VPS-28, C. elegans; open reading frame amplified from N2 cDNA

stoichiometry N [2]: 1
B3: VPS-37 (recombinant C. elegans) (natural protein, UniProt O44158 1-234, looked up)
chain: MFSQNPYESHVDVAVSAASANLRNMTNEQLISLLDDDALLESIIVNLPQVRSMPTDKESALAANKSLAEWNLAQKPRIDAAKTQTVDLYDQVKKLQGEVAVLKSQLDSVSSSKSLDTTSSLMQVAAQEADDDAEALFTQFENGEISVEIFLKQFKDKKTIAHLRKIKSDRLAALLREQTYSSYAQPTVPPPMPHAQPGYPTGNHMPGIGNIQFGSGYSGYPNISQPSAGRHPFF
notes: VPS-37 (CD4.4), C. elegans; open reading frame amplified from N2 cDNA
